The record followed here is patent publication US20240287172A1 (SCIRHOM, published 2024).

For experiment [1], the target named is T1, human iRhom2, endogenously expressed (human, UniProt Q6PJF5 1-856).
T1 sequence: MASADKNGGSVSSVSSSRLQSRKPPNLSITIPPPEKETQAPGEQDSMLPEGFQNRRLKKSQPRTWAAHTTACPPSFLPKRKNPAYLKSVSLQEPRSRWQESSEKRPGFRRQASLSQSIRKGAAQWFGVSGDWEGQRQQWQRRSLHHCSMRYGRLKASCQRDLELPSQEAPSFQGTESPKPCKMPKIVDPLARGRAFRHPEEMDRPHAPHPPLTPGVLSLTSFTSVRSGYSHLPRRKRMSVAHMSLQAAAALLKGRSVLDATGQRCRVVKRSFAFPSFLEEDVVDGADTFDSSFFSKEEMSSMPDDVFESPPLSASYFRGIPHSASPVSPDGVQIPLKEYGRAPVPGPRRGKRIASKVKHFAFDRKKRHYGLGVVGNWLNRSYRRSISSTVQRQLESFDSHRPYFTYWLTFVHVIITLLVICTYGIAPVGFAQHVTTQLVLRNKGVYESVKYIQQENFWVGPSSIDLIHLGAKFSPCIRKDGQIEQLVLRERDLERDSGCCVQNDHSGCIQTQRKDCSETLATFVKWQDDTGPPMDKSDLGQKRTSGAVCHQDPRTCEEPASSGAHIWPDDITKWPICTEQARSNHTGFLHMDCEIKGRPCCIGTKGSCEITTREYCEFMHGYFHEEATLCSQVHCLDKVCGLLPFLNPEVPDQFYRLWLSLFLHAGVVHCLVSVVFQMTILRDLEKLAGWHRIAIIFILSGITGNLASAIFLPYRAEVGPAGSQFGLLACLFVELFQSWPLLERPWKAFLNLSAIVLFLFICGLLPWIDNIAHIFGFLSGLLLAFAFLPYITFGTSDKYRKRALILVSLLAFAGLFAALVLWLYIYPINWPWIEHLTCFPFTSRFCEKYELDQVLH
Put plainly: cell-based or functional assay.

For experiment [2], the target named is T2, dog iRhom2 full length wild type, T7-tagged (dog, UniProt Q00M95 1-827).
T2 construct: whole, on cells; on MEF-DKO cells; also called Dog-iR2-FL-WT-T7
T2 sequence: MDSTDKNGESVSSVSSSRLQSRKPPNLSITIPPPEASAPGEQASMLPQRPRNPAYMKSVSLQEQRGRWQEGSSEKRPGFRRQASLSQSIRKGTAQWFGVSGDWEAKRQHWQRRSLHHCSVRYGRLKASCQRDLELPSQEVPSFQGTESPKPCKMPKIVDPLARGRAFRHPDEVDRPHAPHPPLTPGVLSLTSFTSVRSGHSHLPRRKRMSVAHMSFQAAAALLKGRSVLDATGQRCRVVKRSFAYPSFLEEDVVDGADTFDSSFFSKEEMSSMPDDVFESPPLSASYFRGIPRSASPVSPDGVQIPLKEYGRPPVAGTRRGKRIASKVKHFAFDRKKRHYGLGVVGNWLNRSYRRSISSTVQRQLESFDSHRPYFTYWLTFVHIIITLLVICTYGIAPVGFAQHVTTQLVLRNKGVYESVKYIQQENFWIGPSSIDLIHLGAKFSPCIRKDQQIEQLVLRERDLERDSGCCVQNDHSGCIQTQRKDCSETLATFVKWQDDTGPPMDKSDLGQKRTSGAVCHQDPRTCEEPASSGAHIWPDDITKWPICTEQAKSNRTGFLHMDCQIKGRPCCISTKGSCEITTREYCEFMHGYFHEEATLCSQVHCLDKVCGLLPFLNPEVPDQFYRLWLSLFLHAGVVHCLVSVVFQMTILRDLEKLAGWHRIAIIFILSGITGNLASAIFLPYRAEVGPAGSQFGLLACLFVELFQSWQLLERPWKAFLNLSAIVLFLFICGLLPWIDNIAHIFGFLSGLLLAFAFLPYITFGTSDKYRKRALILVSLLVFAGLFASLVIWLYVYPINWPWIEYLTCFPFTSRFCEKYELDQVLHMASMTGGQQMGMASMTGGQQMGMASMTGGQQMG
The experiment in a line: FACS on MEF-DKO-iR2 Dog cells, 3 µg/ml. As to the method: In brief, immortalized MEF-DKO-EV control cells, MEF-DKO-rhesus-iR2-FL-WT-T7 cells, MEF-DKO-cyno-iR2-FL-WT-T7 cells, MEF-DKO-dog-iR2-FL-WT-T7 cells and MEF-DKO-rabbit-iR2-FL-WT-T7 cells, as well as their respective iRhom1 counterparts, were harvested with 10 mM EDTA in PBS, washed and resuspended in FACS buffer (PBS, 3% FBS, 0.05% sodium azide), and seeded in Nunc U-bottom 96-well plates (Thermo Fisher Scientific, USA) at approximately 3×10⁵ cells per well. To pellet cells and remove supernatants, the plates were centrifuged at 1,500 rpm and 4° C. for 3 minutes. For primary staining, cells were resuspended in 100 μl per well of either FACS buffer alone (controls), mouse monoclonal anti-T7 IgG (Merck Millipore, USA) at 3 μg/ml FACS buffer or the antibodies of the invention also at 3 μg/ml FACS buffer and incubated on ice for 1 hour.
Afterwards, plates were centrifuged at 1,500 rpm and 4° C. for 3 minutes and washed twice with 200 μl per well of FACS buffer. For secondary staining, cells were spun down and resuspended in 100 μl per well of PE-conjugated goat anti-mouse IgG F(ab′)2 detection fragment (Dianova, Germany) diluted 1:100 in FACS buffer. Protected from light, the cell suspensions were incubated on ice for 1 hour. […] Finally, cells were resuspended in 150 μl per well of FACS buffer and analyzed using a BD Accuri™ C6 Plus flow cytometer (Becton Dickinson, Germany).

In experiment [3] the target is T3, human iRhom1, endogenously expressed (human, UniProt Q96CC6 1-855).
T3 construct: also called iRhom1 on RH-30 cells
T3 sequence: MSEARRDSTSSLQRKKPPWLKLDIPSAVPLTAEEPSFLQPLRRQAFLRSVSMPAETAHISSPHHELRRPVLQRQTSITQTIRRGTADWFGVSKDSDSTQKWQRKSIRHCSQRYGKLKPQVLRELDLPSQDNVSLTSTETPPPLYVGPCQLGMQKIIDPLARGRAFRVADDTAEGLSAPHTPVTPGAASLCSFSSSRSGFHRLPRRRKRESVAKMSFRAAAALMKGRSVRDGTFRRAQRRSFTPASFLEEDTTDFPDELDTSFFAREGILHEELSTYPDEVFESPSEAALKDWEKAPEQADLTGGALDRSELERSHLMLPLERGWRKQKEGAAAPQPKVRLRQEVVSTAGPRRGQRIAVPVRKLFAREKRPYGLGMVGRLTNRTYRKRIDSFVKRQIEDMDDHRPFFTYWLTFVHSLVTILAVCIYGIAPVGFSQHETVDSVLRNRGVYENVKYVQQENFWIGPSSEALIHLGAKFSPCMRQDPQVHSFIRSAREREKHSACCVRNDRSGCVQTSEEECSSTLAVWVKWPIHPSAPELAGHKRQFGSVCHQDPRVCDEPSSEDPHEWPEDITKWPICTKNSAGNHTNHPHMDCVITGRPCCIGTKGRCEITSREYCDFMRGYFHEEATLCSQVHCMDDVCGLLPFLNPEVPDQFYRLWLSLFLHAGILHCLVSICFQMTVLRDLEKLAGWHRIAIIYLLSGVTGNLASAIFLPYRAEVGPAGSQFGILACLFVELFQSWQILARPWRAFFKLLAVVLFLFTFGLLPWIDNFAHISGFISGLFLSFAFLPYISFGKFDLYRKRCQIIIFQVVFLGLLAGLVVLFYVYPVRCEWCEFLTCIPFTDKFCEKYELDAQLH
The experiment in a line: FACS on RH-30 cells (iRhom1-positive, not iRhom2-positive).

B1: chimeric antibody 34 (antibody, V domains shown)
VH: QVTLKESGPGILQPSQTLSLTCSFSGFSLSTFSLGVGWIRQSSGKGLEWLAHIWWDDEKYYNPALKSRLTISKDTSKNQVFLKIANVDAADTATYYCARAYYSKSYYALDYWGQGTSVTVSS
VL: DIQMTQSPSSLSASLGERVSLTCRASQEISGYLSWLQQKPDGTIKRLIYAASTLDSGVPKRFSGSRSGSDYSLAISSLESEDFADYYCLQYANFPFTFGSGTKLEIK
On to B1, for which, in experiment [1], the “LPS-induced TNFα release from PBMCs of rheumatoid arthritis patients, percent inhibition, 1 µg/ml, chimeric antibody” value stood at 66.6%; the “PMA-induced HB-EGF release from PBMCs of rheumatoid arthritis patients, percent inhibition, 1 µg/ml, chimeric antibody” value came out at 30.6%; the “PMA-induced HB-EGF release from THP-1 cells, percent inhibition, 3 µg/ml” value was 76.1%; the “PMA-induced HB-EGF release from U-937 cells, percent inhibition” value turned out to be 98.1%. Besides, in experiment [1], the “PMA-induced IL-6R release from PBMCs of rheumatoid arthritis patients, percent inhibition, 1 µg/ml, chimeric antibody” value was determined as 45.6%; the “PMA-induced IL-6R release from U-937 cells, percent inhibition, 3 µg/ml” value was determined as 82.8%; the “PMA-induced TNFα release from U-937 cells, percent inhibition, 3 µg/ml” value is 87.4%.

B2: chimeric antibody 22 (antibody, V domains shown)
VH: QVTLKESGPGILQPSQTLSLTCSFSGFSLSTFGMGVGWIRQPSGKGLEWLAHIWWDDEKYYNSALKSRLTISKATSKNQVFLKIANVDTADTATYYCARISNYGSNYWYFNVWGTGTTVTVSS
VL: QVVLTQSPALMSASPGEKVTMTCSAGSSVSYMYWYQQKPGSSPRVLIYDTSNLASGVPARFTGSGSGTSYSLTISRMEAEDAATYYCQQWNSYPLTFGAGTKLELK
On to B2, for which, in experiment [1], the “LPS-induced TNFα release from PBMCs of rheumatoid arthritis patients, percent inhibition, 1 µg/ml, chimeric antibody” value amounted to 76.5%; the “PMA-induced HB-EGF release from PBMCs of rheumatoid arthritis patients, percent inhibition, 1 µg/ml, chimeric antibody” value turned out to be 54.7%; the “PMA-induced HB-EGF release from THP-1 cells, percent inhibition, 3 µg/ml” value is 81.9%; the “PMA-induced HB-EGF release from U-937 cells, percent inhibition” value was found to be 103%. In experiment [1], the “PMA-induced IL-6R release from PBMCs of rheumatoid arthritis patients, percent inhibition, 1 µg/ml, chimeric antibody” value was 61.1%; the “PMA-induced IL-6R release from U-937 cells, percent inhibition, 3 µg/ml” value was 85.6%; the “PMA-induced TNFα release from U-937 cells, percent inhibition, 3 µg/ml” value came out at 96.5%.

B3: chimeric antibody 42 (antibody, V domains shown)
VH: QVTLKESGPGILQPSQTLSLTCSLSGFSLSTFGRGVGWIRQPSGKGLEWLAHIWWDDEKYYNPALKSRLTISKDTSKNQVFLRIANVDTADTATYYCARIQNYGSNYWYFDVWGTGTTVTVSS
VL: LIVLTQSPAIMSASPGEKVTMTCGATSRISYMFWYQQKPGSSPRVLIYDTSNLASGVPVRFSGSGSGTSYSLTISRVEAEDVATYYCQQWNSYPLTFGAGTKLELK
Take B3: in experiment [1], the “LPS-induced TNFα release from PBMCs of rheumatoid arthritis patients, percent inhibition, 1 µg/ml, chimeric antibody” value is 82.1%; the “PMA-induced HB-EGF release from PBMCs of rheumatoid arthritis patients, percent inhibition, 1 µg/ml, chimeric antibody” value was 76.1%; the “PMA-induced HB-EGF release from THP-1 cells, percent inhibition, 3 µg/ml” value came to 80.8%; the “PMA-induced HB-EGF release from U-937 cells, percent inhibition” value came to 103%. Besides, in experiment [1], the “PMA-induced IL-6R release from PBMCs of rheumatoid arthritis patients, percent inhibition, 1 µg/ml, chimeric antibody” value was determined as 73.5%; the “PMA-induced IL-6R release from U-937 cells, percent inhibition, 3 µg/ml” value is 91.8%; the “PMA-induced TNFα release from U-937 cells, percent inhibition, 3 µg/ml” value turned out to be 96.5%.

B4: chimeric antibody 44 (antibody, V domains shown)
VH: QVTLKESGPGILQPSQTLSLTCSFSGFSLSTFGMGVGWIRQPSEKGLEWLAHIWWDDDKYYNPALKSRLTISKDTSKNQIFLKITNVDTAETATYYCSRIGNYGSNYWYFDVWGTGTTVTVSS
VL: QIVLTQSPAVMSASPGEKVTMTCTASSSVYYMYWYQQTPGSSPRLLIYDTSNLASGVPVRFSGSGSGTSYSLTISRMEAEDAATYYCQQWNTYPLTFGAGTKLELK
On to B4, for which, in experiment [1], the “LPS-induced TNFα release from PBMCs of rheumatoid arthritis patients, percent inhibition, 1 µg/ml, chimeric antibody” value is 70.2%; the “PMA-induced HB-EGF release from PBMCs of rheumatoid arthritis patients, percent inhibition, 1 µg/ml, chimeric antibody” value came out at 37.8%; the “PMA-induced HB-EGF release from THP-1 cells, percent inhibition, 3 µg/ml” value was 70.7%; the “PMA-induced HB-EGF release from U-937 cells, percent inhibition” value came out at 99.2%. In addition, in experiment [1], the “PMA-induced IL-6R release from PBMCs of rheumatoid arthritis patients, percent inhibition, 1 µg/ml, chimeric antibody” value stood at 53.1%; the “PMA-induced IL-6R release from U-937 cells, percent inhibition, 3 µg/ml” value is 85.2%; the “PMA-induced TNFα release from U-937 cells, percent inhibition, 3 µg/ml” value is 89.2%.

B5: chimeric antibody 16 (antibody, V domains shown)
VH: QVTLKESGPGILQPSQTLSLTCSFSGFSLSTFALGVGWIRQPSGRGLEWLAHIWWDDDKYYNPALKSRLTISKDTSKNHVFLKIANVDTADTATYYCARITTYYYGMDYWGQGTSVTVSS
VL: DIVLSQSPATLSVTPGDSVSLFCRASQSIGNHLHWYQQESHASPRLLIKYASQSISGIPSRFSGSGSGTDFTLSINSVETEDFGMYFCQQSYNWPLTFGAGTKLELK
notes: chimeric version of clone #16, made in CHO cells, detected with anti-human IgG; also called ch16; chl6 (so in the source)
Regarding B5, in experiment [1], the “LPS-induced TNFα release from PBMCs of rheumatoid arthritis patients, percent inhibition, 1 µg/ml, chimeric antibody” value came out at 83.6%; the “PMA-induced HB-EGF release from PBMCs of rheumatoid arthritis patients, percent inhibition, 1 µg/ml, chimeric antibody” value turned out to be 66%; the “PMA-induced HB-EGF release from THP-1 cells, percent inhibition, 3 µg/ml” value came out at 73.6%; the “PMA-induced HB-EGF release from U-937 cells, percent inhibition” value was found to be 101%. Moreover, in experiment [1], the “PMA-induced IL-6R release from PBMCs of rheumatoid arthritis patients, percent inhibition, 1 µg/ml, chimeric antibody” value was 72.3%; the “PMA-induced IL-6R release from U-937 cells, percent inhibition, 3 µg/ml” value is 84.3%; the “PMA-induced TNFα release from U-937 cells, percent inhibition, 3 µg/ml” value came to 93.7%. In experiment [2], the binding result is given as “binds”. Also, the binding result in experiment [3] was “no binding (tested: 3 µg/ml)”.
